Measurements reported in paper PMC9242541, “Importance of Rare DPYD Genetic Polymorphisms for 5-Fluorouracil Therapy in the Japanese Population” (Frontiers in Pharmacology, 2022).

Molecular target: the molecule itself
Assay: native gel or EMSA; blue native PAGE (Tris-glycine buffer, 5%-20% polyacrylamide gels), 9 μg of the soluble fraction of transfected 293FT cells per lane, immunoblot with polyclonal anti-human DPD antibody; monomer to dimer

Protein	stoichiometry N
DPD variant M321I (enzyme, human, UniProt Q12882 4-1025, looked up, dihydropyrimidine dehydrogenase (DPD), human, DPYD cDNA with a variant found in Japanese individuals; made by site-directed mutagenesis of the wild-type construct; also called 963G > A; source: 293FT cells, transfected (pcDNA3.4), soluble fraction) VLSKDSADIESILALNPRTQTHATLCSTSAKKLDKKHWKRNPDKNCFNCEKLENNFDDIKHTTLGERGALREAMRCLKCADAPCQKSCPTNLDIKSFITSIANKNYYGAAKMIFSDNPLGLTCGMVCPTSDLCVGGCNLYATEEGPINIGGLQQFATEVFKAMSIPQIRNPSLPPPEKMSEAYSAKIALFGAGPASISCASFLARLGYSDITIFEKQEYVGGLSTSEIPQFRLPYDVVNFEIELMKDLGVKIICGKSLSVNEMTLSTLKEKGYKAAFIGIGLPEPNKDAIFQGLTQDQGFYTSKDFLPLVAKGSKAGICACHSPLPSIRGVVIVLGAGDTAFDCATSALRCGARRVFIVFRKGFVNIRAVPEEMELAKEEKCEFLPFLSPRKVIVKGGRIVAMQFVRTEQDETGKWNEDEDQMVHLKADVVISAFGSVLSDPKVKEALSPIKFNRWGLPEVDPETMQTSEAWVFAGGDVVGLANTTVESVNDGKQASWYIHKYVQSQYGASVSAKPELPLFYTPIDLVDISVEMAGLKFINPFGLASATPATSTSMIRRAFEAGWGFALTKTFSLDKDIVTNVSPRIIRGTTSGPMYGPGQSSFLNIELISEKTAAYWCQSVTELKADFPDNIVIASIMCSYNKNDWTELAKKSEDSGADALELNLSCPHGMGERGMGLACGQDPELVRNICRWVRQAVQIPFFAKLTPNVTDIVSIARAAKEGGANGVTATNTVSGLMGLKSDGTPWPAVGIAKRTTYGGVSGTAIRPIALRAVTSIARALPGFPILATGGIDSAESGLQFLHSGASVLQVCSAIQNQDFTVIEDYCTGLKALLYLKSIEELQDWDGQSPATVSHQKGKPVPRIAELMDKKLPSFGPYLEQRKKIIAENKIRLKEQNVAFSPLKRNCFIPKRPIPTIKDVIGKALQYLGTFGELSNVEQVVAMIDEEMCINCGKCYMTCNDSGYQAIQFDPETHLPTITDTCTGCTLCLSVCPIVDCIKMVSRTTPYEPKRGVPLSVNPVC	2
DPD variant V335M (enzyme, human, UniProt Q12882 4-1025, looked up, dihydropyrimidine dehydrogenase (DPD), human, DPYD cDNA with a variant found in Japanese individuals; made by site-directed mutagenesis of the wild-type construct; also called 1003G > A; source: 293FT cells, transfected (pcDNA3.4), soluble fraction) VLSKDSADIESILALNPRTQTHATLCSTSAKKLDKKHWKRNPDKNCFNCEKLENNFDDIKHTTLGERGALREAMRCLKCADAPCQKSCPTNLDIKSFITSIANKNYYGAAKMIFSDNPLGLTCGMVCPTSDLCVGGCNLYATEEGPINIGGLQQFATEVFKAMSIPQIRNPSLPPPEKMSEAYSAKIALFGAGPASISCASFLARLGYSDITIFEKQEYVGGLSTSEIPQFRLPYDVVNFEIELMKDLGVKIICGKSLSVNEMTLSTLKEKGYKAAFIGIGLPEPNKDAIFQGLTQDQGFYTSKDFLPLVAKGSKAGMCACHSPLPSIRGVMIVLGAGDTAFDCATSALRCGARRVFIVFRKGFVNIRAVPEEMELAKEEKCEFLPFLSPRKVIVKGGRIVAMQFVRTEQDETGKWNEDEDQMVHLKADVVISAFGSVLSDPKVKEALSPIKFNRWGLPEVDPETMQTSEAWVFAGGDVVGLANTTVESVNDGKQASWYIHKYVQSQYGASVSAKPELPLFYTPIDLVDISVEMAGLKFINPFGLASATPATSTSMIRRAFEAGWGFALTKTFSLDKDIVTNVSPRIIRGTTSGPMYGPGQSSFLNIELISEKTAAYWCQSVTELKADFPDNIVIASIMCSYNKNDWTELAKKSEDSGADALELNLSCPHGMGERGMGLACGQDPELVRNICRWVRQAVQIPFFAKLTPNVTDIVSIARAAKEGGANGVTATNTVSGLMGLKSDGTPWPAVGIAKRTTYGGVSGTAIRPIALRAVTSIARALPGFPILATGGIDSAESGLQFLHSGASVLQVCSAIQNQDFTVIEDYCTGLKALLYLKSIEELQDWDGQSPATVSHQKGKPVPRIAELMDKKLPSFGPYLEQRKKIIAENKIRLKEQNVAFSPLKRNCFIPKRPIPTIKDVIGKALQYLGTFGELSNVEQVVAMIDEEMCINCGKCYMTCNDSGYQAIQFDPETHLPTITDTCTGCTLCLSVCPIVDCIKMVSRTTPYEPKRGVPLSVNPVC	2
DPD variant G366A (enzyme, human, UniProt Q12882 4-1025, looked up, dihydropyrimidine dehydrogenase (DPD), human, DPYD cDNA with a variant found in Japanese individuals; made by site-directed mutagenesis of the wild-type construct; also called 1097G > C; source: 293FT cells, transfected (pcDNA3.4), soluble fraction) VLSKDSADIESILALNPRTQTHATLCSTSAKKLDKKHWKRNPDKNCFNCEKLENNFDDIKHTTLGERGALREAMRCLKCADAPCQKSCPTNLDIKSFITSIANKNYYGAAKMIFSDNPLGLTCGMVCPTSDLCVGGCNLYATEEGPINIGGLQQFATEVFKAMSIPQIRNPSLPPPEKMSEAYSAKIALFGAGPASISCASFLARLGYSDITIFEKQEYVGGLSTSEIPQFRLPYDVVNFEIELMKDLGVKIICGKSLSVNEMTLSTLKEKGYKAAFIGIGLPEPNKDAIFQGLTQDQGFYTSKDFLPLVAKGSKAGMCACHSPLPSIRGVVIVLGAGDTAFDCATSALRCGARRVFIVFRKAFVNIRAVPEEMELAKEEKCEFLPFLSPRKVIVKGGRIVAMQFVRTEQDETGKWNEDEDQMVHLKADVVISAFGSVLSDPKVKEALSPIKFNRWGLPEVDPETMQTSEAWVFAGGDVVGLANTTVESVNDGKQASWYIHKYVQSQYGASVSAKPELPLFYTPIDLVDISVEMAGLKFINPFGLASATPATSTSMIRRAFEAGWGFALTKTFSLDKDIVTNVSPRIIRGTTSGPMYGPGQSSFLNIELISEKTAAYWCQSVTELKADFPDNIVIASIMCSYNKNDWTELAKKSEDSGADALELNLSCPHGMGERGMGLACGQDPELVRNICRWVRQAVQIPFFAKLTPNVTDIVSIARAAKEGGANGVTATNTVSGLMGLKSDGTPWPAVGIAKRTTYGGVSGTAIRPIALRAVTSIARALPGFPILATGGIDSAESGLQFLHSGASVLQVCSAIQNQDFTVIEDYCTGLKALLYLKSIEELQDWDGQSPATVSHQKGKPVPRIAELMDKKLPSFGPYLEQRKKIIAENKIRLKEQNVAFSPLKRNCFIPKRPIPTIKDVIGKALQYLGTFGELSNVEQVVAMIDEEMCINCGKCYMTCNDSGYQAIQFDPETHLPTITDTCTGCTLCLSVCPIVDCIKMVSRTTPYEPKRGVPLSVNPVC	2
DPD variant C354Y (enzyme, human, UniProt Q12882 4-1025, looked up, dihydropyrimidine dehydrogenase (DPD), human, DPYD cDNA with a variant found in Japanese individuals; made by site-directed mutagenesis of the wild-type construct; also called 1061G > A; source: 293FT cells, transfected (pcDNA3.4), soluble fraction) VLSKDSADIESILALNPRTQTHATLCSTSAKKLDKKHWKRNPDKNCFNCEKLENNFDDIKHTTLGERGALREAMRCLKCADAPCQKSCPTNLDIKSFITSIANKNYYGAAKMIFSDNPLGLTCGMVCPTSDLCVGGCNLYATEEGPINIGGLQQFATEVFKAMSIPQIRNPSLPPPEKMSEAYSAKIALFGAGPASISCASFLARLGYSDITIFEKQEYVGGLSTSEIPQFRLPYDVVNFEIELMKDLGVKIICGKSLSVNEMTLSTLKEKGYKAAFIGIGLPEPNKDAIFQGLTQDQGFYTSKDFLPLVAKGSKAGMCACHSPLPSIRGVVIVLGAGDTAFDCATSALRYGARRVFIVFRKGFVNIRAVPEEMELAKEEKCEFLPFLSPRKVIVKGGRIVAMQFVRTEQDETGKWNEDEDQMVHLKADVVISAFGSVLSDPKVKEALSPIKFNRWGLPEVDPETMQTSEAWVFAGGDVVGLANTTVESVNDGKQASWYIHKYVQSQYGASVSAKPELPLFYTPIDLVDISVEMAGLKFINPFGLASATPATSTSMIRRAFEAGWGFALTKTFSLDKDIVTNVSPRIIRGTTSGPMYGPGQSSFLNIELISEKTAAYWCQSVTELKADFPDNIVIASIMCSYNKNDWTELAKKSEDSGADALELNLSCPHGMGERGMGLACGQDPELVRNICRWVRQAVQIPFFAKLTPNVTDIVSIARAAKEGGANGVTATNTVSGLMGLKSDGTPWPAVGIAKRTTYGGVSGTAIRPIALRAVTSIARALPGFPILATGGIDSAESGLQFLHSGASVLQVCSAIQNQDFTVIEDYCTGLKALLYLKSIEELQDWDGQSPATVSHQKGKPVPRIAELMDKKLPSFGPYLEQRKKIIAENKIRLKEQNVAFSPLKRNCFIPKRPIPTIKDVIGKALQYLGTFGELSNVEQVVAMIDEEMCINCGKCYMTCNDSGYQAIQFDPETHLPTITDTCTGCTLCLSVCPIVDCIKMVSRTTPYEPKRGVPLSVNPVC	2
DPD variant H25R (enzyme, human, UniProt Q12882 4-1025, looked up, dihydropyrimidine dehydrogenase (DPD), human, DPYD cDNA with a variant found in Japanese individuals; made by site-directed mutagenesis of the wild-type construct; also called 74A > G; source: 293FT cells, transfected (pcDNA3.4), soluble fraction) VLSKDSADIESILALNPRTQTRATLCSTSAKKLDKKHWKRNPDKNCFNCEKLENNFDDIKHTTLGERGALREAMRCLKCADAPCQKSCPTNLDIKSFITSIANKNYYGAAKMIFSDNPLGLTCGMVCPTSDLCVGGCNLYATEEGPINIGGLQQFATEVFKAMSIPQIRNPSLPPPEKMSEAYSAKIALFGAGPASISCASFLARLGYSDITIFEKQEYVGGLSTSEIPQFRLPYDVVNFEIELMKDLGVKIICGKSLSVNEMTLSTLKEKGYKAAFIGIGLPEPNKDAIFQGLTQDQGFYTSKDFLPLVAKGSKAGMCACHSPLPSIRGVVIVLGAGDTAFDCATSALRCGARRVFIVFRKGFVNIRAVPEEMELAKEEKCEFLPFLSPRKVIVKGGRIVAMQFVRTEQDETGKWNEDEDQMVHLKADVVISAFGSVLSDPKVKEALSPIKFNRWGLPEVDPETMQTSEAWVFAGGDVVGLANTTVESVNDGKQASWYIHKYVQSQYGASVSAKPELPLFYTPIDLVDISVEMAGLKFINPFGLASATPATSTSMIRRAFEAGWGFALTKTFSLDKDIVTNVSPRIIRGTTSGPMYGPGQSSFLNIELISEKTAAYWCQSVTELKADFPDNIVIASIMCSYNKNDWTELAKKSEDSGADALELNLSCPHGMGERGMGLACGQDPELVRNICRWVRQAVQIPFFAKLTPNVTDIVSIARAAKEGGANGVTATNTVSGLMGLKSDGTPWPAVGIAKRTTYGGVSGTAIRPIALRAVTSIARALPGFPILATGGIDSAESGLQFLHSGASVLQVCSAIQNQDFTVIEDYCTGLKALLYLKSIEELQDWDGQSPATVSHQKGKPVPRIAELMDKKLPSFGPYLEQRKKIIAENKIRLKEQNVAFSPLKRNCFIPKRPIPTIKDVIGKALQYLGTFGELSNVEQVVAMIDEEMCINCGKCYMTCNDSGYQAIQFDPETHLPTITDTCTGCTLCLSVCPIVDCIKMVSRTTPYEPKRGVPLSVNPVC	2
DPD variant R353C (enzyme, human, UniProt Q12882 4-1025, looked up, dihydropyrimidine dehydrogenase (DPD), human, DPYD cDNA with a variant found in Japanese individuals; made by site-directed mutagenesis of the wild-type construct; expression after SDS-PAGE was below the lower limit of quantification; also called 1057C > T; source: 293FT cells, transfected (pcDNA3.4), soluble fraction) VLSKDSADIESILALNPRTQTHATLCSTSAKKLDKKHWKRNPDKNCFNCEKLENNFDDIKHTTLGERGALREAMRCLKCADAPCQKSCPTNLDIKSFITSIANKNYYGAAKMIFSDNPLGLTCGMVCPTSDLCVGGCNLYATEEGPINIGGLQQFATEVFKAMSIPQIRNPSLPPPEKMSEAYSAKIALFGAGPASISCASFLARLGYSDITIFEKQEYVGGLSTSEIPQFRLPYDVVNFEIELMKDLGVKIICGKSLSVNEMTLSTLKEKGYKAAFIGIGLPEPNKDAIFQGLTQDQGFYTSKDFLPLVAKGSKAGMCACHSPLPSIRGVVIVLGAGDTAFDCATSALCCGARRVFIVFRKGFVNIRAVPEEMELAKEEKCEFLPFLSPRKVIVKGGRIVAMQFVRTEQDETGKWNEDEDQMVHLKADVVISAFGSVLSDPKVKEALSPIKFNRWGLPEVDPETMQTSEAWVFAGGDVVGLANTTVESVNDGKQASWYIHKYVQSQYGASVSAKPELPLFYTPIDLVDISVEMAGLKFINPFGLASATPATSTSMIRRAFEAGWGFALTKTFSLDKDIVTNVSPRIIRGTTSGPMYGPGQSSFLNIELISEKTAAYWCQSVTELKADFPDNIVIASIMCSYNKNDWTELAKKSEDSGADALELNLSCPHGMGERGMGLACGQDPELVRNICRWVRQAVQIPFFAKLTPNVTDIVSIARAAKEGGANGVTATNTVSGLMGLKSDGTPWPAVGIAKRTTYGGVSGTAIRPIALRAVTSIARALPGFPILATGGIDSAESGLQFLHSGASVLQVCSAIQNQDFTVIEDYCTGLKALLYLKSIEELQDWDGQSPATVSHQKGKPVPRIAELMDKKLPSFGPYLEQRKKIIAENKIRLKEQNVAFSPLKRNCFIPKRPIPTIKDVIGKALQYLGTFGELSNVEQVVAMIDEEMCINCGKCYMTCNDSGYQAIQFDPETHLPTITDTCTGCTLCLSVCPIVDCIKMVSRTTPYEPKRGVPLSVNPVC	2
